Values quoted from earlier work as cited in patent US7759315B2, “Treatment of inflammatory conditions of the intestine” (CSL Behring AG, priority 2005, dated 2010).
Non-standard residues stand in square brackets, D forms with d. No end group written: not given here. Nal = naphthylalanine (source code Z); Aib = CC(C)(N)C(=O)O

Columns and labels:
[1] = percent helicity; for He (%): micelles; for He (%) free: free peptide
[2] = biological target: T1, LCAT (Homo sapiens, UniProt P04180)
T1 sequence (P04180 25-440): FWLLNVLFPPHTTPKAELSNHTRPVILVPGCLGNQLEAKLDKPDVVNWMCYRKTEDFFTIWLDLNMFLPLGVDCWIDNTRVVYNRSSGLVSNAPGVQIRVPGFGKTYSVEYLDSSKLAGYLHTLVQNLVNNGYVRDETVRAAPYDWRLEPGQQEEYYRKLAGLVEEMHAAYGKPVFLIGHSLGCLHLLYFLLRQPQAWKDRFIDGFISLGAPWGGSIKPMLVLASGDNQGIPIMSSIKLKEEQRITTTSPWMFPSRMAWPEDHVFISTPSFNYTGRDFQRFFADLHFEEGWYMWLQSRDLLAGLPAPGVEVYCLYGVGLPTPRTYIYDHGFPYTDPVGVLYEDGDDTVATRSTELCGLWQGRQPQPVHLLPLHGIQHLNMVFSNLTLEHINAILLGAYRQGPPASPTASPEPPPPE

Substance	He (%) [1]	ACTIVITY (%) LCAT [2] [%]	He (%) free [1]	He (%) SUVs ([1]; SUVs) [%]
PVLDLFRELLNELLEAZKQKLK (PVLDLFRELLNELLEA[Nal]KQKLK; not fully specified (C-terminus)) [Peptide 10]	87%	79		
PVLDLFRELLNELLEWLKQKLK [Peptide 3]	95%	98		
PVLELFRELLEELKQKLK* (not fully specified (N-terminus, C-terminus); printed as PVLELFRELLEELKQKLK*) [Peptide 194]	93%	88		
PVLDLFRNLLEKLLEALEQKLK [Peptide 49]	65%	22		
GVLELFENLLERLLDALQKKLK [Peptide 145]	51%	100		
PVLDEFREKLNEXWEALKQKLK (PVLDEFREKLNE[Aib]WEALKQKLK; not fully specified (C-terminus)) [Peptide 42]	74%	25		
DWLKAFYDKVFEKFKEFF [Peptide 245]	77%	4		
PVLDEWREKLNEXLEALKQKLK (PVLDEWREKLNE[Aib]LEALKQKLK; not fully specified (C-terminus)) [Peptide 62]	85%	16		
LDDLLQKWAEAFNQLLKK [Peptide 237, Id-3 peptide (Labeur et al., 1997), reference compound]	66%	11		
PVLDEFRELLYEXLEALKQKLK (PVLDEFRELLYE[Aib]LEALKQKLK; not fully specified (C-terminus)) [Peptide 70]	78%	12		
PVLDLFRELLNEXLEAWKQKLK (PVLDLFRELLNE[Aib]LEAWKQKLK; not fully specified (C-terminus)) [Peptide 38]	49%	29		
PVLDAFRELLEALAQLKK [Peptide 223]	56%	8		
PVLDLFNELLRELLEALQKKLK [Peptide 40]	84%	25		
PVLDLFRELLNEXLEALKQKLK (PVLDLFRELLNE[Aib]LEALKQKLK; not fully specified (C-terminus)) [Peptide 6]	93%	80		
klkqklaellenllerfldlvp (KLKQKLAELLENLLERFLDLVP; not fully specified; D-amino acids; D-Lys; D-Leu; D-Gln; D-Ala; D-Glu; D-Asn; D-Arg; D-Phe; D-Asp; D-Val; D-Pro) [Peptide 107]	sp	0		
PVLDWFRELLNELLEALKQKLK [Peptide 35]	59%	31	49 (sp) %	
PVWDEFREKLNEXLEALKQKLK (PVWDEFREKLNE[Aib]LEALKQKLK; not fully specified (C-terminus)) [Peptide 52]	sp	20		
PVLELFENLLERLLDALQKKLK [Peptide 146]	100%	86		
PVLDLFRELLNELLEZLKQKLK (PVLDLFRELLNELLE[Nal]LKQKLK; not fully specified (C-terminus)) [Peptide 1]	85%	120		
PVLDLFKELLNELLEALKQKLK [Peptide 7]	89%	83		
PVLDLFRELLNELZEALKQKLK (PVLDLFRELLNEL[Nal]EALKQKLK; not fully specified (C-terminus)) [Peptide 27]	92%	44		
PVLDLFRELWEELKQKLK* (not fully specified (N-terminus, C-terminus); printed as PVLDLFRELWEELKQKLK*) [Peptide 199]	77%	76		
PVLDLFREKLNEXLEALKQKLK (PVLDLFREKLNE[Aib]LEALKQKLK; not fully specified (C-terminus)) [Peptide 46]	86%	23		
PVLDLFREWLNELLEALKQKLK [Peptide 37]	75%	29		
PVLDLFRELLNELLEALKQKLK^† [Peptide 30]	90%	38		

Substance	He (%) [1]	ACTIVITY (%) LCAT [2] [%]	He (%) free [1]	He (%) SUVs ([1]; SUVs) [%]
PVLDEFREKLNEPLEALKQKLK [Peptide 113]	22%	0		
pvldlfrellneXlealkqklk [Peptide 100]	92%	2		
PVLDLFRELLEELKQKLK [Peptide 210]	63%	46		
P~~~~~~~LLNELLEALKQKLK (PLLNELLEALKQKLK) [Peptide 104]	49%	1		
PVLDLFRELLNELLEALKQKLK [Peptide 4]	95%	93		
PVLELFENLLERLLDAWQKKLK [Peptide 164]	66%	24		
PVLDLFRELLNELWEALKQKLK [Peptide 28]	98%	40		
P~~~LFRELLNELLEALKQKLK (PLFRELLNELLEALKQKLK) [Peptide 55]	72%	19		
EWLEAFYKKVLEKLKELF [Peptide 246, 18AM4 peptide (Rosseneu et al., WO93/25581; Corijn et al., 1993), reference compound]	44%	4		
PVLDFFRELLNEXLEALKQKLK (PVLDFFRELLNE[Aib]LEALKQKLK; not fully specified (C-terminus)) [Peptide 25]	82%	51		
PVLDLFLELLNEXLEALKQKLK (PVLDLFLELLNE[Aib]LEALKQKLK; not fully specified (C-terminus)) [Peptide 31]	98%	34		
DWFKAFYDKVAEKFKEAF [Peptide 243]	64%	5		
PVLDLFRELLEELLKALKKKLK [Peptide 39]	69%	25		
PVLDLFRELWNELLEALKQKLK [Peptide 15]	60%	60		
PVLDEFREKLNERLEALKQKLK [Peptide 109, [R^13]-Consensus 22-mer peptide (Anantharamaiah et al., 1990), reference compound]	45%	0		
PVLDLFRELLNELLQKLK [Peptide 209]	71%	47		
PVLDLFRELLELLKQKLK [Peptide 217]	78%	30		
PVLDEFRELLNEXLEALKQKLK (PVLDEFRELLNE[Aib]LEALKQKLK; not fully specified (C-terminus)) [Peptide 91]	100%	6		
PVLDLFRNLLEELLEALQKKLK [Peptide 66]	82%	15		
PVLDLWRELLNEXLEALKQKLK (PVLDLWRELLNE[Aib]LEALKQKLK; not fully specified (C-terminus)) [Peptide 41]	73%	25		
PVLDLFRELLNEWLEALKQKLK [Peptide 54]	71%	19		
PVLDLFRWLLNEXLEALKQKLK (PVLDLFRWLLNE[Aib]LEALKQKLK; not fully specified (C-terminus)) [Peptide 108]	55%	0		
PVLDEFREKLNEXLEALKQKLK (PVLDEFREKLNE[Aib]LEALKQKLK; not fully specified (C-terminus)) [Peptide 45]	84%	24	24%	25
Ac-PVLDEFREKLNEELEALKQKLK-NH2 [Peptide 75, reference compound]	28%			
AVLDLFRELLEELKQKLK* (not fully specified (N-terminus, C-terminus); printed as AVLDLFRELLEELKQKLK*) [Peptide 203]		66		
